# Laboratory results taken from article PMC5655542.
# B1: recombinant human IL-33, untreated (reduced, active form) (ligand)
# chain: MKPKMKYSTNKISTAKWKNTASKALCFKLGKSQQKAKEVCPMYFMKLRSGLMIKKEACYFRRETTKRPSLKTGRKHKRHLVLAACQQQSTVECFAFGISGVQKYTRALHDSSITGISPITEYLASLSTYNDQSITFALEDESYEIYVEDLKKDEKKDKVLLSYYESQHPSNESGDGVDGKMLMVTLSPTKDFWLHANNKEHSVELHKCEKPLPDQAFFVLHNMHSNCVSFECKTDPGVFIGVKDNHLALIKVDSSENLCTENILFKLSET
# Molecular target: H. polygyrus Alarmin Release Inhibitor (HpARI), recombinant mature 6-His and Myc-tagged protein (Heligmosomoides polygyrus)
# Test: SPR; BIAcore T200; HpARI captured via its 6-His tag on a Ni2+-NTA chip to 400 RU; cytokine injected (mIL-33 6.2-167 nM, hIL-33 0.062-1.67 μM); 25°C; 10 mM NaH2PO4 pH 7.5, 150 mM NaCl, 50 μM EDTA, 0.05% surfactant P20; single kinetic titration, global 1:1 fit
# Chain of H. polygyrus Alarmin Release Inhibitor (HpARI), recombinant mature 6-His and Myc-tagged protein (Heligmosomoides polygyrus) (A0A3P7XL18 63-297): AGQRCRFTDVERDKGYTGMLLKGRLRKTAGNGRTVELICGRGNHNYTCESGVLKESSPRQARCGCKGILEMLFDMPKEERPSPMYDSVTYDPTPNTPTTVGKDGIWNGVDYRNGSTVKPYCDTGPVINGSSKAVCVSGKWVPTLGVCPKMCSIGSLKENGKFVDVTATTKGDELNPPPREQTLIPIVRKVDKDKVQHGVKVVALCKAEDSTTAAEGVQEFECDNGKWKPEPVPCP
binder,measurement,value
B1,Kd,260 nM
same,stoichiometry N,1
